Experimental data: patent US20210186964, “METHODS OF TREATING CANCERS” (Dana-Farber Cancer Institute, Inc., published 2021)

Columns and labels:
[1] = target: USP12 (UniProt O75317 SEQ:1-370); test: EMSA; 300 nM USP12; settings: label: Cy3
Protocol: (§1) Recombinant USP1 and UAF1 proteins from R&D systems (E564, E566) were used for some electromobility shift assays and in vitro deubiquitination assays. Electromobility shift assays were performed by pre-incubating fluorophore (Cy3)-tagged DNA and purified protein in binding buffer (20 mM Hepes (pH 7.6), 0.1M KCl, 5 mM MgCl2, 3% (v/v) glycerol, 0.25 mg/ml BSA, 0.05 mM EDTA, 0.5 mM DTT, 0.01% (v/v) NP-40) for 30 min on ice. Samples were then loaded onto 6% polyacrylamide gels and ran at 65V in 0.5× TBE for 135 min at 4° C. Gels were visualized using the LAS-4000 imaging system (GE Healthcare Life Sciences, Pittsburgh, Pa.). DNA used for Ub-AMC, Ub-CHOP2 and electromobility shift assay were 40 bp in length and were designed to have minimal potential of secondary structure formation. The sequences are as follows:
USP1, USP12, and USP46 are related DUB proteins which bind and are stimulated by UAF1 (20, 23, 24, 31, 32). All three proteins contain a conserved UAF1 binding site, localized to a zinc finger region of each polypeptide (FIG. 10A). These USPs bind to a discrete WD40 domain of UAF1 (23, 24). Of the three proteins, USP1 is the largest protein, as shown by the sequence alignment with USP12 and USP46 (FIG. 10C).

[2] = target: UAF1 (WDR48) (UniProt Q8TAF3 Q8TAF3:1-677); test: EMSA; 300 nM UAF1; settings: tags: SF9-made or R&D systems E566, label: Cy3
Protocol: as §1
(§2) Since UAF1 has DNA binding activity, USP1 might also bind DNA and thereby stabilize replication forks. To test this hypothesis, DNA gel shift assays were performed with purified UAF1 protein with or without purified USP1 protein to analyze direct DNA binding activity. Purified proteins were incubated with either single strand DNA, double strand DNA, or fork DNA. The UAF1 protein and the USP1/UAF1 complex generated a reproducible gel shift of all three DNA templates.

[3] = target: T1, USP1 (UniProt O94782 SEQ:1-770); test: EMSA; 300 nM USP1; strongest shift; 5 mM MgCl2, 0.1 M KCl, on ice; not disrupted by ML323 (FIG. 11C); settings: tags: SF9-made or R&D systems E564; label: Cy3; fork with non-complementary single-stranded arms
T1 sequence: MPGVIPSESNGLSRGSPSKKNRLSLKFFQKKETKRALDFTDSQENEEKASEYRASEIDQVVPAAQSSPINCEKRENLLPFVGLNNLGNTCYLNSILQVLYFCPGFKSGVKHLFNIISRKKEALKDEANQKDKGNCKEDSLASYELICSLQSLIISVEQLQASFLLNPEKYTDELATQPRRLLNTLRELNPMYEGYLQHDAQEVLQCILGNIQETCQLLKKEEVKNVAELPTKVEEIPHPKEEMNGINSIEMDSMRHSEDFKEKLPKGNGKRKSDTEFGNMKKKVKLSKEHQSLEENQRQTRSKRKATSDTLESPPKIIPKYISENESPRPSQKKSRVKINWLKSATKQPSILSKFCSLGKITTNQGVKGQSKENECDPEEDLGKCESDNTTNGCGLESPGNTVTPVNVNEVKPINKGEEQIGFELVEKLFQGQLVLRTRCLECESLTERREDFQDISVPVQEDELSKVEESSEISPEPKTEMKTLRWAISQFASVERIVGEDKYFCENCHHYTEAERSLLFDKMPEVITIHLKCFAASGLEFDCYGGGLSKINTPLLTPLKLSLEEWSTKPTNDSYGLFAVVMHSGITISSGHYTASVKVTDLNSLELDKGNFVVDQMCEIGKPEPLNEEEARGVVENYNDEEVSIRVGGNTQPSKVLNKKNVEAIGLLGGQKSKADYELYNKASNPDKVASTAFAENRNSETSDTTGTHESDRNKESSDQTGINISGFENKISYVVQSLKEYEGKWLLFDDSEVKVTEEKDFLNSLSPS
Protocol: as §1, §2

[4] = target: USP1/UAF1 complex (UniProt O94782;Q8TAF3 O94782:1-785,Q8TAF3:1-677); test: EMSA; 100 nM USP1 + 300 nM UAF1; settings: tags: SF9-made, R&D systems or Boston Biochem, label: Cy3
Protocol: as §1, §2

[5] = fork with non-complementary single-stranded arms

Chain of USP12 (O75317 whole entry): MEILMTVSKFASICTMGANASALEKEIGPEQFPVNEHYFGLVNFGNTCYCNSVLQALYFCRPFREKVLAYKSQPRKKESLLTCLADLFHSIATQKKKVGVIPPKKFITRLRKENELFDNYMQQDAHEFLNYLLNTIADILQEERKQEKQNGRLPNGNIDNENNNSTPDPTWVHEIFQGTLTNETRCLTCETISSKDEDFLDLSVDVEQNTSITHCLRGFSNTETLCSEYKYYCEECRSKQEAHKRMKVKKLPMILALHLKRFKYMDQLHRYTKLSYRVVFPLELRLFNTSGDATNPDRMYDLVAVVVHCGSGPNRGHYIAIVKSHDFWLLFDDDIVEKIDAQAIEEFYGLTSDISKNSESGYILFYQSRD
Chain of UAF1 (WDR48) (Q8TAF3 whole entry, one chain of several): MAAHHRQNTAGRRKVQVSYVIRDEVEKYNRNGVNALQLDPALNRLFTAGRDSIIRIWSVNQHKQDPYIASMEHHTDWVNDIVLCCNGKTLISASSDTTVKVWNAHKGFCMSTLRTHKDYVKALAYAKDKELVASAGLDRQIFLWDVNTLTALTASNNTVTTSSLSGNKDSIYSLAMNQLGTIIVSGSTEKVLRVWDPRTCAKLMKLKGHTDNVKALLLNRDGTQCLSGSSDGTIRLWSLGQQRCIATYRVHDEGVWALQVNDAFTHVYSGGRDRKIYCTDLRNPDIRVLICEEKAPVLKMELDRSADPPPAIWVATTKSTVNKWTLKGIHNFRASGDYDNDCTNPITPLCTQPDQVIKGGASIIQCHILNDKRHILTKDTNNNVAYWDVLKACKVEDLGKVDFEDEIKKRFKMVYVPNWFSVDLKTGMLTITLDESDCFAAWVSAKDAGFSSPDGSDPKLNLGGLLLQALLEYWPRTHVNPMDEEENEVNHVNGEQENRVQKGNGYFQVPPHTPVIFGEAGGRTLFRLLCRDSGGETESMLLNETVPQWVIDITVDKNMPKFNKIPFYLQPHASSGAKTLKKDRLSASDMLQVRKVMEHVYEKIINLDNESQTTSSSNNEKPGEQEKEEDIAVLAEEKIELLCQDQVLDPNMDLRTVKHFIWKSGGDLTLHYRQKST
Chain of USP1/UAF1 complex (Q8TAF3 whole entry, one chain of several): as above

B1: 40-mer fork DNA (structured_DNA)
DNA 1: CCAGTGAATTGTTGCTCGGTACCTGCTAACGGTAATCGG
DNA 2: CAGCTATGGGACATTCGATACCGAGCAACAATTCACTGG
binding result [1, 5]: no binding | binding result [2, 5]: binds | binding result [3]: binds | binding result [4, 5]: binds

CCAGTGAATTGTTGCTCGGTACCTGCTAACGGTAATCGG (ssDNA) [40-mer ssDNA (top)]
binding result [1]: no binding | binding result [2]: binds | binding result [4]: binds

B2: 40-mer dsDNA (dsDNA)
DNA 1: CCAGTGAATTGTTGCTCGGTACCTGCTAACGGTAATCGG
DNA 2: CCGATTACCGTTAGCAGGTACCGAGCAACAATTCACTGG
binding result [1]: no binding | binding result [2]: binds | binding result [4]: binds
